Experimental data reported in publication PMC8065639.

Molecular target: T1, GST-PA14_51020-His (antitoxin) (Pseudomonas aeruginosa PA14) (UniProt A0A0H2Z7N8)
T1 sequence: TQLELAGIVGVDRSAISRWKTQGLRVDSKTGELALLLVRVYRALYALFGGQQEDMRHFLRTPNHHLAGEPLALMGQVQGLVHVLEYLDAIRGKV
Experiment: EMSA

Row | Sequence | binding
1 | CGGGCTGGAAGGTGGAGCGGGGAATCCGTCTGCAGGCGCCGCCTTTCTCCGATCACGAGGCTGCGCTGACCGACATCGCCGACTACCGCGCTCCCCAGGAACTGGGGAGTGCCATGCGCAGCGCCGGGGTGCAGGCATTCGAATACCGTTCGGCGCGTTGCCCGGAGCGCGGCTGCAATGTCGCCCTGTTCACGCCCGCG (double strand) [PA14_51010 coding region internal fragment] | no binding
2 | GTTTTTCTCTCTATCACGCCGGTCAATGCTTGCGCGTGGTTCTCTAGGTTCGACCGAATCAAGGTGTGTTTTCAGCAAAATAATGATAGTTTGTTGTAAACACACATGAGGAGGTCGTCATGAGCGCTCTCATCAAGGAACGTCCCAGCGCCGATGCTGTCCTGGCCAAGGCCGTCCTGGCCGCGCGCGAGCAATTGGGG (double strand) [PA14_51020 upstream (operon promoter) fragment] | binds
